{"source": "patent US20240209088A1", "about": "(NMI NATURWISSENSCHAFTLICHES UND MEDIZINISCHES INSTITUT AN …, published 2024)", "binders": {"B1": {"name": "mutant CD4-Nb1 (all lysine residues replaced with arginine residues) (VHH)", "VHH": "EVQLVESGGGLVQPGGSLRLSCAASGFTFSRLAMSWHREPPGRGREWLADIDSSGDTTDYLASVRGRFTISRDNARNTLYLQMDSLRSEDTGVYYCASREDPPGYWGQGTQVTVSS", "notes": "Expressed in bacteria; also called mutant nanobody; mutant version of the nanobody"}, "B2": {"name": "CD4-Nb1-Cy5.5 (VHH)", "VHH": "EVQLVESGGGLVQPGGSLRLSCAASGFTFSKLAMSWHREPPGKGREWLADIDSSGDTTDYLASVKGRFTISRDNAKNTLYLQMDSLKSEDTGVYYCASREDPPGYWGQGTQVTVSS", "modifications": "C-terminus sortase-coupled to H-Gly-Gly-Gly-propyl-azide, then click-labeled with DBCO-Cy5.5", "notes": "also called hCD4-Nb1-Cy5.5; Cy5.5-labeled CD4-Nb1"}, "B3": {"name": "CD4-Nb1 sortase-coupled to the fluorescent dye CF568 (VHH)", "VHH": "EVQLVESGGGLVQPGGSLRLSCAASGFTFSKLAMSWHREPPGKGREWLADIDSSGDTTDYLASVKGRFTISRDNAKNTLYLQMDSLKSEDTGVYYCASREDPPGYWGQGTQVTVSS", "modifications": "C-terminus sortase-coupled to the CF568-coupled peptide H-Gly-Gly-Gly-Doa-Lys-NH2 (labeling ratio 1:1)", "notes": "also called CF568-labeled CD4-Nb1; CD4-Nbs-CF568"}, "B4": {"name": "CD4-Nb1 (VHH)", "VHH": "EVQLVESGGGLVQPGGSLRLSCAASGFTFSKLAMSWHREPPGKGREWLADIDSSGDTTDYLASVKGRFTISRDNAKNTLYLQMDSLKSEDTGVYYCASREDPPGYWGQGTQVTVSS", "notes": "Unlabeled, expressed in E. coli; also called non-mutated CD4-Nb1"}, "B5": {"name": "^64Cu-CD4-Nb1 (VHH)", "VHH": "EVQLVESGGGLVQPGGSLRLSCAASGFTFSKLAMSWHREPPGKGREWLADIDSSGDTTDYLASVKGRFTISRDNAKNTLYLQMDSLKSEDTGVYYCASREDPPGYWGQGTQVTVSS", "modifications": "azide-coupled C-terminus reacted with BCN-NODAGA and radiolabeled with 64Cu", "notes": "also called ^64Cu-hCD4-Nb1"}, "B6": {"name": "CD4-Nb5 (VHH)", "VHH": "EVQLQESGGGLVQAGGSLRLSCKVSGRTFGTYAMGWFRQAPGKEREFVAVISWIKGNTYVADSVLGRFTISRDNARNWLHLQMYSLKPEDTATYYCAASSTVTLPTTLDPYTYWGQGTPVTVSS", "notes": "Unlabeled; excluded from further analyses after the live-cell staining"}, "B7": {"name": "CD4-Nb3 (VHH)", "VHH": "HVQLVESGGGLVQPGGSLRLSCAVSGFALEYYAIGWFRQAPGKERERVACMSASGGVINYSESVKGRFTISRDNAKNTVYLQMNTLKPEDTAVYYCAAEKAYYGSSWAECYLMMDYWGKGTLVTVSS", "notes": "Unlabeled, expressed in E. coli"}, "B8": {"name": "CD4-Nb2 (VHH)", "VHH": "EVQLVESGGGSVQPGGSLRLSCGASGFDVDYYAIGWFRQAPGKEREGVSCIASSDGSTYYADSVKGRFTISRDNAKNTVYLQMNSLKPEDTAVYYCAADATCPYYCSGSVCYLETGMDYWGEGTLVTVSS", "notes": "as for B7"}, "B9": {"name": "CD4-Nb4 (VHH)", "VHH": "EVQLQESGGALAQPGGSLRLSCAVSGFTFGTYGMGWLRQAPGKGREFVAAINWIHGGEIYADSVKGRFTISKDNAKNTLYLQMDSLKPEDTAVYYCAARSGTSLYTGVDEYQYWGQGTQVTVSS", "notes": "as for B7"}}, "key": {"[1]": {"molecular_target": "T1, recombinant extracellular portion of human CD4 (domains D1-4) (human, UniProt P01730 26-396, for BLI biotinylated with 3-fold molar excess of biotin-N-hydroxysuccinimide ester; not biotinylated in HDX-MS)", "T1 construct": "extracellular domain; also called recombinant hCD4; extracellular domain of hCD4", "assay": "BLI"}, "[2]": {"molecular_target": "T1, recombinant extracellular portion of …", "assay": "biolayer interferometry on human CD4; the sheet prints Conc: 0.625 - 5 nM, four sensorgrams up to about 0.17 nm"}, "[3]": {"molecular_target": "T2, murine CD4 on mouse CD4+ cells (mouse, UniProt P06332 27-457)", "T2 construct": "whole, on cells; also called murine CD4+ lymphocytes", "T2 sequence (looked up)": "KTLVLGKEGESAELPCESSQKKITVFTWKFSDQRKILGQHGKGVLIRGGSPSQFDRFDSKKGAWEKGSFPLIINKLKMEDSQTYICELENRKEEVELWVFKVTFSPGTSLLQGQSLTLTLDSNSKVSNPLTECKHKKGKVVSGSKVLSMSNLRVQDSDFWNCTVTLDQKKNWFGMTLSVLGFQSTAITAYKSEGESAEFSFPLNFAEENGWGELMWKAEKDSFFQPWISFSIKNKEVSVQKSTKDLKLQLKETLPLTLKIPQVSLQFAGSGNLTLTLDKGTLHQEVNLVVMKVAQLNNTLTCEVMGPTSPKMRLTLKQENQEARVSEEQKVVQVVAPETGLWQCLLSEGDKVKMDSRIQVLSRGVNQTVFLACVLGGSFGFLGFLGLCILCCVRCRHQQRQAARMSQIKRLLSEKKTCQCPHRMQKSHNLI", "assay": "flow cytometry of mouse CD4+ cells from spleen and lymph nodes"}, "[4]": {"molecular_target": "T3, hCD4 domain-deletion mutant lacking domain D1 (CD4_ΔD1) (human, UniProt P01730 26-458)", "T3 construct": "whole, on cells; Transiently expressed in CHO wt cells; also called pcDNA3.1_CD4_ΔD1_IRES-eGFP", "assay": "live-cell immunofluorescence of CHO cells transiently expressing the domain-deletion mutant, CF568-labeled Nb"}, "[5]": {"molecular_target": "T4, hCD4 domain-deletion mutant lacking domains D1 and D2 (CD4_ΔD1ΔD2) (human, UniProt P01730 26-458)", "T4 construct": "whole, on cells; Transiently expressed in CHO wt cells; also called pcDNA3.1_CD4_ΔD1ΔD2_IRES-eGFP", "assay": "live-cell immunofluorescence of CHO cells transiently expressing the domain-deletion mutant, CF568-labeled Nb"}, "[6]": {"molecular_target": "T1, recombinant extracellular portion of …", "assay": "BLI (affinity constants predetermined by BLI analysis)", "protocol": "(§1) To determine the binding affinity of purified Nbs to recombinant hCD4, biolayer interferometry (BLItz, ForteBio) was performed. First, CD4 was biotinylated by 3-fold molar excess of biotin-N-hydroxysuccinimide ester. CD4 was then immobilized at single-use high-precision streptavidin biosensors (SAX) according to manufacturer's protocols. […] As a reference run, PBS was used instead of Nb in the association step. […] Recorded sensograms were analyzed using the BLItzPro software and dissociation constants (KD) were calculated based on global fits."}, "[7]": {"molecular_target": "T5, full-length human CD4 on cells (human, UniProt P01730 26-458)", "T5 construct": "whole, on cells; Stably expressed (CHO-hCD4, HEK293-hCD4) or endogenous (PBMCs, human CD4+ cells from blood, HPB-ALL, T cell lines); also called hCD4; cell-resident hCD4", "assay": "flow cytometry on cells expressing hCD4", "protocol": "(§2) (E) EC₅₀ determination by flow cytometry.\n(§3) For each staining condition 200,000 cells were incubated with suitable dilution series of CD4 nanobodies at 4° C. for 30 min. Cells were washed two times and for detection Cy5 AffiniPure Goat Anti-Alpaca IgG, VHH domain (Jackson ImmunoResearch) was applied for 15 min. […] Final data analysis was performed via FloJo10® software."}, "[8]": {"molecular_target": "T1, recombinant extracellular portion of …", "assay": "biolayer interferometry, biotinylated hCD4 immobilized on streptavidin biosensors", "protocol": "(§4) (D) For biolayer interferometry-based affinity measurements, biotinylated hCD4 was immobilized on streptavidin biosensors.\nas §1"}, "[9]": {"molecular_target": "T5, full-length human CD4 on cells", "assay": "flow cytometry on HEK293-hCD4 cells, detection with anti-VHH Cy5 antibody; flow cytometry, full-length hCD4 on HEK293-hCD4 cells"}, "[10]": {"molecular_target": "T1, recombinant extracellular portion of …", "assay": "BLI, biotinylated extracellular domain of hCD4 on streptavidin sensor, serial dilutions of Nb; BLI on biotinylated extracellular domain of hCD4 at the sensor tip", "protocol": "as §1\n(§5) To quantitatively assess affinities, biolayer interferometry (BLI) measuring serial dilutions of Nbs were performed on the biotinylated extracellular domain of hCD4 immobilized at the sensor tip."}, "[11]": {"molecular_target": "T5, full-length human CD4 on cells", "assay": "flow cytometry, percentage of positively stained hCD4-expressing cells against Nb concentration; the subscript is redrawn as 56, EC50 by the legend paragraph 99", "protocol": "as §2, §3"}, "[12]": {"molecular_target": "T1, recombinant extracellular portion of …", "assay": "biolayer interferometry, biotinylated hCD4 immobilized on streptavidin biosensors, four Nb concentrations; the subscript is redrawn as O, KD by the legend paragraph 99", "protocol": "as §4, §1"}, "[13]": {"molecular_target": "T5, full-length human CD4 on cells", "assay": "in vitro radioimmunoassay on HPB-ALL cells (data not shown)"}, "[14]": {"molecular_target": "T5, full-length human CD4 on cells", "assay": "live-cell immunofluorescence of CHO-hCD4 cells, unlabeled Nb detected with anti-VHH Cy5 secondary antibody"}, "[15]": {"molecular_target": "T1, recombinant extracellular portion of …", "assay": "BLI, biotinylated extracellular domain of hCD4 on streptavidin sensor, serial dilutions of Nb", "protocol": "as §1, §5"}, "[16]": {"molecular_target": "T5, full-length human CD4 on cells", "assay": "flow cytometry, percentage of positively stained hCD4-expressing cells against Nb concentration, four-parametric sigmoidal model"}, "[17]": {"molecular_target": "T5, full-length human CD4 on cells", "assay": "flow cytometry on HEK293-hCD4 cells, detection with anti-VHH Cy5 antibody", "protocol": "For each staining condition 200,000 cells were incubated with suitable dilution series of CD4 nanobodies at 4° C. for 30 min. Cells were washed two times and for detection Cy5 AffiniPure Goat Anti-Alpaca IgG, VHH domain (Jackson ImmunoResearch) was applied for 15 min. […] After two washing steps, samples were resuspended in 200 μl FACS buffer and analyzed with a BD FACSMelody Cell Sorter. Final data analysis was performed via FloJo10® software.\nIn addition, corresponding EC50 values were determined with full-length plasma membrane-located hCD4 on HEK293-hCD4 cells by flow cytometry."}, "[18]": {"molecular_target": "T1, recombinant extracellular portion of …", "assay": "biolayer interferometry, biotinylated hCD4 immobilized on streptavidin biosensors; box in the panel prints [CD4_Nb1]: 15.625-125 nM", "protocol": "as §1"}, "[19]": {"molecular_target": "T5, full-length human CD4 on cells", "assay": "flow cytometry, percentage of positively stained hCD4-expressing cells against Nb concentration, four-parametric sigmoidal model; the curve rises only to about 3 % at the highest concentration near 10^-4.5 M"}}}
{"binder": "B1", "values": [{"measurement": "Kd", "setting": "[1]", "value": "~1", "unit": "nM"}, {"measurement": "Kd", "setting": "[2]", "value": 1, "unit": "nM"}]}
{"binder": "B2", "values": [{"measurement": "binding result", "setting": "[3]", "value": "no binding"}]}
{"binder": "B3", "values": [{"measurement": "binding result", "setting": "[4]", "value": "no binding (tested: not printed on the sheet)"}, {"measurement": "binding result", "setting": "[5]", "value": "no binding (tested: not printed on the sheet)"}]}
{"binder": "B4", "values": [{"measurement": "Kd", "setting": "[6]", "value": 5.1, "unit": "nM"}, {"measurement": "EC50", "setting": "[7]", "value": 0.74, "unit": "nM"}, {"measurement": "koff", "setting": "[8]", "value": 0.000613, "unit": "s⁻¹"}, {"measurement": "kon", "setting": "[8]", "value": 121000, "unit": "M⁻¹ s⁻¹"}, {"measurement": "EC50", "setting": "[9]", "value": "~0.7", "unit": "nM"}, {"measurement": "Kd", "setting": "[10]", "value": "~5", "unit": "nM"}, {"measurement": "EC50", "setting": "[11]", "value": 0.74, "unit": "nM"}, {"measurement": "Kd", "setting": "[12]", "value": 5.09, "unit": "nM"}]}
{"binder": "B5", "values": [{"measurement": "fold over the non-specific binding to CD4-negative DHL cells or of the 64Cu-GFP-Nb control", "setting": "[13]", "value": "~30", "unit": "times"}]}
{"binder": "B6", "values": [{"measurement": "binding result", "setting": "[14]", "value": "no binding (tested: not printed on the sheet)"}]}
{"binder": "B7", "values": [{"measurement": "Kd", "setting": "[6]", "value": 75.3, "unit": "nM"}, {"measurement": "EC50", "setting": "[7]", "value": 533, "unit": "nM"}, {"measurement": "Kd", "setting": "[15]", "value": 75, "unit": "nM"}, {"measurement": "koff", "setting": "[8]", "value": 0.00618, "unit": "s⁻¹"}, {"measurement": "kon", "setting": "[8]", "value": 82000, "unit": "M⁻¹ s⁻¹"}, {"measurement": "EC50", "setting": "[16]", "value": 533, "unit": "nM"}]}
{"binder": "B8", "values": [{"measurement": "Kd", "setting": "[6]", "value": 6.5, "unit": "nM"}, {"measurement": "EC50", "setting": "[7]", "value": 0.73, "unit": "nM"}, {"measurement": "EC50", "setting": "[17]", "value": "~0.7", "unit": "nM"}, {"measurement": "Kd", "setting": "[15]", "value": "~7", "unit": "nM"}, {"measurement": "koff", "setting": "[8]", "value": 0.000795, "unit": "s⁻¹"}, {"measurement": "kon", "setting": "[8]", "value": 122000, "unit": "M⁻¹ s⁻¹"}, {"measurement": "EC50", "setting": "[16]", "value": 0.73, "unit": "nM"}, {"measurement": "Kd", "setting": "[18]", "value": 6.53, "unit": "nM"}]}
{"binder": "B9", "values": [{"measurement": "EC50", "setting": "[7]", "value": 7360, "unit": "nM"}, {"measurement": "Kd", "setting": "[15]", "value": 135, "unit": "nM"}, {"measurement": "koff", "setting": "[8]", "value": 0.016, "unit": "s⁻¹"}, {"measurement": "kon", "setting": "[8]", "value": 118000, "unit": "M⁻¹ s⁻¹"}, {"measurement": "EC50", "setting": "[19]", "value": 7360, "unit": "nM"}]}
